Reference: the supplement of paper PMC10065799, “High-throughput profiling of sequence recognition by tyrosine kinases and SH2 domains using bacterial peptide display” (eLife, 2023)

Legend:
[1] = tested on: AncSZ; assay: phosphorylation enrichment, bacterial display (enrichment ratio); higher = better substrate or ligand; peptides without Tyr show the background
[2] = target: EPHB1 (UniProt P54762); assay: as above
[3] = target: EPHB2 (UniProt P29323); assay: as above
[4] = target: FGFR1 (UniProt P11362); assay: as above
Sequence of FGFR1 (P11362 whole entry, looked up): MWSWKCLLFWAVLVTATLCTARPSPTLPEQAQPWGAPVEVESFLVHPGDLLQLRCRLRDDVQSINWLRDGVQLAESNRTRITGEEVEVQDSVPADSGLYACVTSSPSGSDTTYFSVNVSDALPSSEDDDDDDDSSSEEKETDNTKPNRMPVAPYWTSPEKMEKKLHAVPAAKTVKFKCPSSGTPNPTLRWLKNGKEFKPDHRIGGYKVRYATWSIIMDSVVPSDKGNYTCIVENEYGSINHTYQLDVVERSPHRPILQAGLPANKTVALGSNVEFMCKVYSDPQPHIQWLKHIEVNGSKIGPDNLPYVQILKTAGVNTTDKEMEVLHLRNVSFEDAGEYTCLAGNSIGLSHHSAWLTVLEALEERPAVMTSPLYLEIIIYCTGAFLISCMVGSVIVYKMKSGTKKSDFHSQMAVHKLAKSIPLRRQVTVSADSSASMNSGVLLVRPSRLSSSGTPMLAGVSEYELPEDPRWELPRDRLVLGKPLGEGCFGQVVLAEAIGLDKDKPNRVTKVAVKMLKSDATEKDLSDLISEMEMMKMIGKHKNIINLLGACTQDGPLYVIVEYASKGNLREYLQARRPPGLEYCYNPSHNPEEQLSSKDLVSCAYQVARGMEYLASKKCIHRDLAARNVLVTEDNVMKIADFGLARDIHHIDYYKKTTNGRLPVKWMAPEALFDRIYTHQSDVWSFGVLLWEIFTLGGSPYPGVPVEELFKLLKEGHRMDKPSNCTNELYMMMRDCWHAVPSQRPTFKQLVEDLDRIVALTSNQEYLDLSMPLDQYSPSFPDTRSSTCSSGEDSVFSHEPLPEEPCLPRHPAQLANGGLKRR

[5] = target: FGFR3 (UniProt P22607); assay: as above
[6] = tested on: Fer (mouse); assay: as above
[7] = target: Fes (UniProt P07332); assay: as above
Sequence of Fes (P07332 whole entry, looked up): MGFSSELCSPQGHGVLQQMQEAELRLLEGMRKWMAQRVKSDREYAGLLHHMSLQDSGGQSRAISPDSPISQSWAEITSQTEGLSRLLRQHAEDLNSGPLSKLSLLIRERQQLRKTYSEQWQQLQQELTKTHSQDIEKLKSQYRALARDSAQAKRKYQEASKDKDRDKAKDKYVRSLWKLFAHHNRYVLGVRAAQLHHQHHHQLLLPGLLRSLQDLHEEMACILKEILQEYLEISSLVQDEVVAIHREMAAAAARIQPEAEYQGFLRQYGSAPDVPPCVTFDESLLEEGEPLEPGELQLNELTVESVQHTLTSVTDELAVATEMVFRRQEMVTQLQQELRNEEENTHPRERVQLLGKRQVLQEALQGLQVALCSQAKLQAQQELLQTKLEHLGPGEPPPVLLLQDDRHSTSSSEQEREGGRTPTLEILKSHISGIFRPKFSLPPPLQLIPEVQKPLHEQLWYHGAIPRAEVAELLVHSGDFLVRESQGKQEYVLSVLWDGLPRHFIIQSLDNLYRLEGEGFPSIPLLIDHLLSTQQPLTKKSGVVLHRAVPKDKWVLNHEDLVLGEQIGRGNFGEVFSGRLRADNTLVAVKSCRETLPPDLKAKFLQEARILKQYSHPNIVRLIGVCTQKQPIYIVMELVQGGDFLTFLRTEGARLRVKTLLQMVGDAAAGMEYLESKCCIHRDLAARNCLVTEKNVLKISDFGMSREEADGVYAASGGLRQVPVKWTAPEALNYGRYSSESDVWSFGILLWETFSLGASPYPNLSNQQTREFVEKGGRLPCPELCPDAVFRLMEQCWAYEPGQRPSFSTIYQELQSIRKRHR

[8] = target: Fyn (UniProt P06241); assay: as above
[9] = target: Hck (UniProt P08631); assay: as above
[10] = target: Jak2 (UniProt O60674); assay: as above
Sequence of Jak2 (O60674 whole entry, looked up): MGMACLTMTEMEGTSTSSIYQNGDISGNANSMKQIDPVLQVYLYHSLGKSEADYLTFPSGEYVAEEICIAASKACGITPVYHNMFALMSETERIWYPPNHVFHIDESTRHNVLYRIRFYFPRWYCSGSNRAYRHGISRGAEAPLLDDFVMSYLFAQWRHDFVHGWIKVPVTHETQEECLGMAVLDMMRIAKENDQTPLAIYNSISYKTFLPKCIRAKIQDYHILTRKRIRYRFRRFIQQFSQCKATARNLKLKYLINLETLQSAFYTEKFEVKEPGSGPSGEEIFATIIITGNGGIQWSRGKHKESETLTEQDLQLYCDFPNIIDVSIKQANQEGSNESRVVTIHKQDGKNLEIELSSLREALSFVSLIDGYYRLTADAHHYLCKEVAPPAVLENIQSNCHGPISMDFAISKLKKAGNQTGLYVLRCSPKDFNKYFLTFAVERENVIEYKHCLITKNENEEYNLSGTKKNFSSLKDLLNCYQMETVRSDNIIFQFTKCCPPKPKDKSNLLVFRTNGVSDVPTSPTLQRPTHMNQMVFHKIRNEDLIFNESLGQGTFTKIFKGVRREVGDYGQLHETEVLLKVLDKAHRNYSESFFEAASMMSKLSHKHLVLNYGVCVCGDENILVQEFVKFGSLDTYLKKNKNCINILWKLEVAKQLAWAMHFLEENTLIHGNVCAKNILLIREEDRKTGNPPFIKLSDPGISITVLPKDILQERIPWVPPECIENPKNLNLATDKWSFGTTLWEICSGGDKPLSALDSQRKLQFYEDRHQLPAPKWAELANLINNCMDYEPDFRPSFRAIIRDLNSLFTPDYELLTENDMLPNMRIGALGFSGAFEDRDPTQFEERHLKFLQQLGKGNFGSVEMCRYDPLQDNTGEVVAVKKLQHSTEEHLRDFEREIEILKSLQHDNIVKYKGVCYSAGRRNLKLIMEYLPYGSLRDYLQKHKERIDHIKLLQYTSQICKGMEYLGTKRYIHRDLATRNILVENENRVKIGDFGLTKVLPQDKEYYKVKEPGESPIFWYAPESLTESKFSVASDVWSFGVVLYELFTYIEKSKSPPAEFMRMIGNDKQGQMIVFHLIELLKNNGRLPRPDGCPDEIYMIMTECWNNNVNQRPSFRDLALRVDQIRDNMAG

[11] = target: MERTK (UniProt Q12866); assay: as above
[12] = tested on: c-Abl (mouse); assay: as above
[13] = tested on: c-Src; assay: as above
[14] = target: Grb2 SH2 (UniProt P62993); assay: SH2 binding enrichment of the phosphorylated peptide, bacterial display (enrichment ratio); higher = better substrate or ligand; peptides without Tyr show the background
Sequence of Grb2 SH2 (P62993 whole entry, looked up): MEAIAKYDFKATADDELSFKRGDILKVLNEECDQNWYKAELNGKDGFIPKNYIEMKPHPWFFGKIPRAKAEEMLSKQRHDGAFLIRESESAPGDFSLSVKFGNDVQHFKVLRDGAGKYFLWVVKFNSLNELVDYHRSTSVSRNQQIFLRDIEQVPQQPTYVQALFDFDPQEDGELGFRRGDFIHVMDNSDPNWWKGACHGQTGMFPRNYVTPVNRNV

[15] = target: SHP2-C SH2; assay: as above
[16] = target: c-Src SH2; assay: as above
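Wherever SH2 binding enrichment of the phosphorylated peptide, bacterial display is given: peptide library displayed on the E. coli surface as eCPX fusions, selected cells deep-sequenced, score is each peptide's frequency after selection divided by its frequency in the input.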
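Wherever phosphorylation enrichment, bacterial display is given: 11-residue human phosphosite peptides and single-mutation variants displayed on the E. coli surface, counted by deep sequencing, each peptide's frequency after selection divided by its frequency in the unselected input library; frequency after pTyr selection over input frequency; kinase dosed for 20-30% of maximal phosphorylation in three min.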

Sequence of EPHB2 (P29323 whole entry, looked up): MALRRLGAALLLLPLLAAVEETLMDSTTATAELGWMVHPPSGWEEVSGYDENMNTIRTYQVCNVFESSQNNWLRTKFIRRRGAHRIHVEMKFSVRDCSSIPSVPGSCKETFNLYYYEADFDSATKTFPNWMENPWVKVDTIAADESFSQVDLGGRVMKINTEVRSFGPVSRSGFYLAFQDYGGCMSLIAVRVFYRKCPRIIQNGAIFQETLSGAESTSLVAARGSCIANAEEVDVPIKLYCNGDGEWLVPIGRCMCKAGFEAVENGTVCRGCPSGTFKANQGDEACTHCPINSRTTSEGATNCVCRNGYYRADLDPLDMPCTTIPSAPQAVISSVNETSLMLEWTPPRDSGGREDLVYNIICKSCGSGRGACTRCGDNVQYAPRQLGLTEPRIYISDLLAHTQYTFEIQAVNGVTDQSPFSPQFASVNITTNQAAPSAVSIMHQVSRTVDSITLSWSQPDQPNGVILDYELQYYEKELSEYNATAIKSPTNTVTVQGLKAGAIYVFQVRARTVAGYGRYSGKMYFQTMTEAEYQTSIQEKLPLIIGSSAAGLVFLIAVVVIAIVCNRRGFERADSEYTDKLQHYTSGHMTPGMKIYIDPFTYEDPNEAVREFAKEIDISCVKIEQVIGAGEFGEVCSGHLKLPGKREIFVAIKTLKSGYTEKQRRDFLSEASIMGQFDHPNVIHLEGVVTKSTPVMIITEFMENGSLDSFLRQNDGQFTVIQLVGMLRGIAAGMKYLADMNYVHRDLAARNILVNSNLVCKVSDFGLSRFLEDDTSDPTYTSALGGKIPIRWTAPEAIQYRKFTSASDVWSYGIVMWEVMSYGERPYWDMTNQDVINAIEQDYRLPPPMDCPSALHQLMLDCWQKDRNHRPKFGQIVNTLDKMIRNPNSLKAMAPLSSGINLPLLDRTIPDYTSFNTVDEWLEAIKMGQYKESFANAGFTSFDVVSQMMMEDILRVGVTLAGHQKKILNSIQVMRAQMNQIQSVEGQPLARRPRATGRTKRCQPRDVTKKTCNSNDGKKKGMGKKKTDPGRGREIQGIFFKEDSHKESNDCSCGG
Sequence of EPHB1 (P54762 whole entry, looked up): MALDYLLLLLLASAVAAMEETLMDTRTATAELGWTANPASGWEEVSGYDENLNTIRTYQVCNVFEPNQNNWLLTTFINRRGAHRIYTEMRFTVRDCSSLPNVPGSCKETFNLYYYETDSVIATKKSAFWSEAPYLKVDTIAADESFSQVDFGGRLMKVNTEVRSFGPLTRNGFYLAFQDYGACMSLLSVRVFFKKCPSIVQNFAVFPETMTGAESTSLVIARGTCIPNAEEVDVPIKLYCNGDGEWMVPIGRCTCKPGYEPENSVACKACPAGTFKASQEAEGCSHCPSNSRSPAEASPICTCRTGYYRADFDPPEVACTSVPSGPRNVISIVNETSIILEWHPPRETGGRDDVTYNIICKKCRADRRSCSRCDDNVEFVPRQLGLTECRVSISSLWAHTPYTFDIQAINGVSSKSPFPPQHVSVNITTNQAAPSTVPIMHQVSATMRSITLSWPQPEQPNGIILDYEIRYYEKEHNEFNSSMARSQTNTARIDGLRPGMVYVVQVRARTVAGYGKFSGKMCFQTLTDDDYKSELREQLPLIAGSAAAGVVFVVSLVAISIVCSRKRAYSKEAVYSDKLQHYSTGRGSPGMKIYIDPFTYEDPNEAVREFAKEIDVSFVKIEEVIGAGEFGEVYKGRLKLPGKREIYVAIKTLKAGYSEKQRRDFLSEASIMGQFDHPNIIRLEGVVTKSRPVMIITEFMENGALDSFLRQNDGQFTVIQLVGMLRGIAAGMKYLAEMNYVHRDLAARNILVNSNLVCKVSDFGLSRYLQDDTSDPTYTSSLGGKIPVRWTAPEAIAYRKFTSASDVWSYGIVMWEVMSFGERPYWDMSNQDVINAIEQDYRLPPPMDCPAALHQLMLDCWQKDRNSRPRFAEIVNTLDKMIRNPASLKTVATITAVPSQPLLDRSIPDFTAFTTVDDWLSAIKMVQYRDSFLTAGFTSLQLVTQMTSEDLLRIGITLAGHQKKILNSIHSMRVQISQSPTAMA

| Sequence | phosphorylation enrichment [1] | phosphorylation enrichment [2] | phosphorylation enrichment [3] | phosphorylation enrichment [4] | phosphorylation enrichment [5] | phosphorylation enrichment [6] | phosphorylation enrichment [7] | phosphorylation enrichment [8] | phosphorylation enrichment [9] | phosphorylation enrichment [10] | phosphorylation enrichment [11] | phosphorylation enrichment [12] | phosphorylation enrichment [13] | SH2 binding enrichment [14] | SH2 binding enrichment [15] | SH2 binding enrichment [16] |
| --- | --- | --- | --- | --- | --- | --- | --- | --- | --- | --- | --- | --- | --- | --- | --- | --- |
| GKLIFHDLRGE [KARS1_Y145_Y145H] | 0.696 | 0.475 | 0.405 | 0.37 | 0.575 | 0.389 | 0.802 | 0.369 | 0.389 | 0.632 | 0.383 | 0.504 | 0.399 | 0.825 | 0.824 | 0.473 |
| SVMAEYGLYGA [VSX2_Y219] | 0.709 | 0.732 | 1.53 | 0.529 | 0.57 | 3.74 | 0.882 | 6.65 | 6.45 | 0.59 | 0.502 | 0.628 | 4.66 | 0.908 | 0.609 | 0.593 |
| QNTGHYSSENT [TMEFF2_Y361_D364E] | 0.66 | 0.814 | 0.389 | 0.828 | 0.548 | 0.868 | 1.33 | 0.903 | 0.468 | 0.575 | 0.908 | 0.561 | 0.588 | 0.95 | 0.735 | 0.467 |
| AGQEDYDRLRS [RHOA_Y66_P71S] | 0.96 | 0.582 | 0.513 | 0.475 | 0.639 | 0.795 | 1.38 | 0.555 | 0.638 | 1.05 | 0.466 | 0.741 | 0.609 | 0.596 | 0.657 | 0.554 |
| QTSSNYDDAMQ [ZNF281_Y531_I527T] | 1.06 | 0.825 | 1.14 | 0.86 | 0.975 | 0.741 | 1.02 | 0.756 | 0.57 | 0.884 | 0.58 | 0.476 | 0.44 | 0.823 | 0.716 | 0.794 |
| SDIEEYVHRIG [DDX3X_Y525] | 0.978 | 0.473 | 0.456 | 0.426 | 0.567 | 0.367 | 0.972 | 0.429 | 0.455 | 0.791 | 0.384 | 0.953 | 0.41 | 0.994 | 0.892 | 0.534 |
| GVMLLYFGRFN [ADGRD1_Y85_T82M_YF] | 1.4 | 0.529 | 0.528 | 0.53 | 0.705 | 0.508 | 1.26 | 0.441 | 0.531 | 1.15 | 0.393 | 0.65 | 0.343 | 0.956 | 1.25 | 0.746 |
| FGSRLYKYAFK [FANCD2_Y458_L456R] | 0.593 | 0.363 | 0.429 | 0.344 | 0.407 | 0.473 | 0.715 | 0.341 | 0.399 | 0.488 | 0.342 | 0.5 | 0.318 | 1.09 | 0.628 | 0.77 |
| KRAAIYNPVIY [RHO_Y301_S297R] | 0.547 | 0.398 | 0.415 | 0.577 | 0.443 | 5.24 | 0.556 | 2.33 | 4.27 | 0.424 | 1.06 | 0.469 | 2.67 | 0.968 | 0.645 | 0.629 |
| FFTEEYVRDHP [DOCK2_Y1555] | 0.989 | 0.486 | 0.461 | 0.481 | 0.766 | 0.452 | 0.915 | 0.44 | 0.485 | 1.19 | 0.381 | 0.657 | 0.457 | 0.944 | 0.916 | 0.553 |
| QNTGHYSSDNT [TMEFF2_Y361] | 0.461 | 0.446 | 0.442 | 0.474 | 0.691 | 0.43 | 0.532 | 0.545 | 0.544 | 0.443 | 0.544 | 0.49 | 0.704 | 0.581 | 0.506 | 0.347 |
| SPPILYSFFLD [FCRL6_Y239_YF] | 1.19 | 2.85 | 1.97 | 1.4 | 1.38 | 1.84 | 1.14 | 2.28 | 2.08 | 1.18 | 9.91 | 0.901 | 3.23 | 1.21 | 1.01 | 0.74 |
| SEASGYQDNIA [DES_Y363] | 0.778 | 0.52 | 0.485 | 0.441 | 0.674 | 0.551 | 0.94 | 0.384 | 0.485 | 0.783 | 0.515 | 0.616 | 0.427 | 0.907 | 0.567 | 0.52 |
| SGIFQYSIAKF [FOXL2_Y83_I84S_YF] | 0.889 | 0.555 | 0.525 | 0.64 | 0.638 | 0.467 | 0.969 | 0.478 | 0.569 | 0.756 | 0.469 | 0.573 | 0.5 | 0.947 | 1.5 | 1.11 |
| ANSSFYSTRSA [NUMA1_Y1836] | 0.56 | 0.405 | 0.365 | 0.425 | 0.41 | 0.356 | 0.568 | 0.513 | 1.07 | 0.575 | 0.523 | 0.644 | 0.468 | 0.713 | 0.659 | 0.412 |
| TFSPPYFHRNC [HGD_Y333_R330S_YF] | 1.81 | 0.268 | 1.08 | 0.535 | 0.83 | 0.483 | 0.808 | 0.363 | 0.539 | 2.21 | 0.718 | 0.878 | 1.01 | 8.96 | 1.18 | 2.42 |
| QPRDIYHQTWA [GBA_Y244_G241R] | 0.821 | 0.574 | 0.627 | 2.91 | 1.38 | 0.526 | 0.913 | 1.77 | 2.72 | 0.787 | 3.54 | 1.15 | 1.99 | 0.945 | 0.942 | 0.709 |

| Sequence | phosphorylation enrichment [1] | phosphorylation enrichment [2] | phosphorylation enrichment [3] | phosphorylation enrichment [4] | phosphorylation enrichment [5] | phosphorylation enrichment [6] | phosphorylation enrichment [7] | phosphorylation enrichment [8] | phosphorylation enrichment [9] | phosphorylation enrichment [10] | phosphorylation enrichment [11] | phosphorylation enrichment [12] | phosphorylation enrichment [13] | SH2 binding enrichment [14] | SH2 binding enrichment [15] | SH2 binding enrichment [16] |
| --- | --- | --- | --- | --- | --- | --- | --- | --- | --- | --- | --- | --- | --- | --- | --- | --- |
| EIEFLYNENMV [IARS1_Y680_T684M] | 1.21 | 0.595 | 0.678 | 0.418 | 0.693 | 0.526 | 1.11 | 0.484 | 0.526 | 1.07 | 0.411 | 0.62 | 0.421 | 0.727 | 0.882 | 0.592 |
| KAWGIYDCQQP [CYP3A7_Y75_V71A] | 1.73 | 8.32 | 4.21 | 0.53 | 0.852 | 3.52 | 1.56 | 7.28 | 6.67 | 1.12 | 5.53 | 1.12 | 4.8 | 0.969 | 0.489 | 0.602 |
| QLPATCMNLGP [MST1R_Y1360_Y1360C] | 1.29 | 0.668 | 0.683 | 0.615 | 0.913 | 0.621 | 1.2 | 0.817 | 0.554 | 1.14 | 0.533 | 1.06 | 0.632 | 0.822 | 0.439 | 0.539 |
| NEANKYQISVN [FGB_Y368] | 0.691 | 0.39 | 0.411 | 0.372 | 0.459 | 0.369 | 0.816 | 0.435 | 0.391 | 0.654 | 0.371 | 0.592 | 0.425 | 0.763 | 0.717 | 0.481 |
| VNFGAYINNFK [GLB1_Y488_D491N_YF] | 1.03 | 0.566 | 0.635 | 0.535 | 0.689 | 0.579 | 0.912 | 0.463 | 0.523 | 0.662 | 0.362 | 0.535 | 0.391 | 0.834 | 0.803 | 0.589 |
| AVARMYGVLPW [PLP1_Y207_D203V] | 0.689 | 0.411 | 0.644 | 0.524 | 0.536 | 0.505 | 0.866 | 2.46 | 3.59 | 0.666 | 0.491 | 0.656 | 2.19 | 0.952 | 0.433 | 0.524 |
| GDNSIYVTKII [DLG1_Y349] | 0.748 | 0.472 | 0.693 | 0.523 | 0.537 | 0.521 | 0.782 | 0.622 | 0.863 | 0.689 | 0.524 | 0.518 | 0.768 | 0.878 | 0.661 | 0.36 |
| LDLSYYTTSSS [EMD_Y182_P183T] | 1.84 | 0.978 | 0.863 | 1.07 | 1.21 | 0.635 | 1.36 | 0.967 | 1.01 | 1.93 | 0.731 | 0.982 | 0.908 | 0.73 | 0.64 | 1.49 |
| MCVKSYTIHYS [F5_Y2153_Y2149C] | 1.12 | 0.682 | 0.569 | 0.513 | 0.878 | 0.636 | 1.26 | 0.517 | 0.552 | 0.942 | 0.459 | 0.726 | 0.45 | 0.811 | 0.592 | 0.472 |
| FLQEIHNSNNQ [FGG_Y140_Y140H_YF] | 0.823 | 0.561 | 0.436 | 0.606 | 0.716 | 0.607 | 1.01 | 0.511 | 0.538 | 0.63 | 0.443 | 0.808 | 0.391 | 0.71 | 0.867 | 0.416 |
| DSYSSYCNAVA [SLC20A2_Y436] | 1.44 | 0.729 | 0.995 | 0.904 | 0.664 | 0.687 | 1.23 | 0.819 | 0.788 | 0.859 | 0.788 | 0.771 | 0.84 | 0.796 | 0.688 | 1.1 |
| MYRVQYNSSVD [LRFN1_Y458_Q455R] | 0.785 | 0.487 | 0.437 | 0.433 | 0.715 | 0.403 | 0.876 | 0.435 | 0.435 | 0.68 | 0.375 | 0.629 | 0.411 | 0.659 | 0.869 | 0.613 |
| AEDEDYESVGA [SYKtide_2014] | 1.29 | 0.815 | 0.672 | 0.62 | 0.937 | 0.655 | 1.44 | 0.586 | 0.658 | 1.26 | 0.49 | 0.938 | 0.616 | 0.852 | 0.975 | 0.589 |
| YQQLFYLLQTN [IQGAP2_Y890] | 1.36 | 1.92 | 0.758 | 2.75 | 2.26 | 0.692 | 1.35 | 0.751 | 1.17 | 1.39 | 2.7 | 1.03 | 1.3 | 1.49 | 1.83 | 1.11 |
| YEEDPYLVVNP [MCM6_Y810] | 1.79 | 0.648 | 0.56 | 1.52 | 1.52 | 0.825 | 1.37 | 1.99 | 1.06 | 1.37 | 0.605 | 0.861 | 2.48 | 1.2 | 0.855 | 3.48 |
| VKGGAYYPVTV [MCCC2_Y145] | 0.582 | 0.331 | 0.551 | 5.39 | 3.75 | 0.819 | 0.822 | 0.423 | 0.607 | 2.65 | 4.41 | 0.609 | 0.445 | 0.955 | 0.8 | 0.715 |
